Experimental data as given in doi:10.1101/2022.02.02.478833 (bioRxiv, 2022).

T1: MOTH domain of human Otoraplin (18-128) (human, UniProt Q9NRC9 18-128, [U-15N]-enriched)
T1 sequence (looked up): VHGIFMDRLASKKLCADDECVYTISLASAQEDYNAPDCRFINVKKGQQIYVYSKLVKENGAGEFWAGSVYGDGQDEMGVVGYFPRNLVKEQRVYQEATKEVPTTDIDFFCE


Legend:
[1] = biological target: human TANGO1 (21-131) cargo-recognition (MOTH) domain (human) (UniProt Q5JRA6); experiment: NMR titration
[2] = biological target: T1, MOTH domain of human Otoraplin (18-128); experiment: NMR titration

Kd [1]	koff [1]	Kd [2]	koff [2]	Binder
321 µM	1100 s⁻¹			FHNYNVEELLGFLELYNSAA [synthetic peptide of residues 132 to 151 of human TANGO1]
		1300 µM	350000 s⁻¹	VPPPVPPRRR (peptide, UniProt Q07889 1149-1158, looked up) [class II PPII helix peptide SOS1 (1149-1158)]
